Laboratory results taken from the nanobody polyreactivity screen of Harvey et al. (2022).

Experiment: yeast display, Sf9 membrane polyspecificity reagent, FACS + sequencing; frameworks hold sequencing errors
Procedure, shortened: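 Galactose-induced (36–48 hours) yeast carrying a synthetic nanobody display library were exposed to 10% biotinylated, detergent-solubilized Sf9 membrane reagent at 4 °C for 1 hour. FACS followed streptavidin microbead enrichment, using low and high (top ~1%) gates for expression (anti-HA) and reagent binding (streptavidin). Colony PCR, MiSeq 2 × 250 sequencing and CDR-length filtering followed. Labels for polyreactivity reflect the gate of origin.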

In the case of “QVQLVESGGGLVQAGGSLRLSCAASGRTLNDYTMGWYRQAPGKERELVAAISSSGVRTYYADSVKGRFTISRDNAKNTVYLQMNSLKPEDTAVYYAKRAGYDRRWNYDYWGQGTQVTVSS”, the “polyreactivity (PSR sort gate)” value was “high polyreactivity”.

With “QVQLVESGGGLVQAGGSLRLSCAASGSIFDPYAMGWYRQAPGKERELVAAITYSVGGTTYYADSVKGRFTISRDNAKNTVYLQMNSLKPEDTAVYYCAAEWWGNPFDYWGQGTQVTVSS” the “polyreactivity (PSR sort gate)” value was “high polyreactivity”.

With “QVQLVESGGGLGQAGGSLRLSSAASGRTFVFYAMGWYIQAPGKERELVAAITSSGGRTYYADSVKGRFTISRDNAKNTVYLQMNSLKPEDTAVYYCAAPYYPYKYDSWGQGTQVTGSS” the “polyreactivity (PSR sort gate)” value was “low polyreactivity”.

For “QVQLVESGGGLVQAGGSLRLSCAASGNTFNVYAMGWYRQAPGKERELVAAITLSGGSTYYADSVKGRFTISRDNEKNTVYLQMNSLKPEDTAVYYCNAEEDGTDYDYWGQGTQVTVSS”, the “polyreactivity (PSR sort gate)” value was “low polyreactivity”.

For “QVQLVESGGGLVQAGGSLRLSCAASGRTFAVYAMGWYRQAPGKERELVAAISSTGGTYYADSVKGRFTISRDNAKNTVYLQMNSLKPEDTAVYYCAATFIQVVVNVQLYDYDYWGQGTQVTVSS”, the “polyreactivity (PSR sort gate)” value was “low polyreactivity”.

With “QVQLVESGGGIVQAGGSLRLSCAASGRTFQANAMGWYRQAPGKERELVAVISSRGTRTYYADSVKGRFTISRDNAKNTVYLQMNSLKPEDTAVYYCAARVPSVGNQSGYDYWGQGTQVTVSS” the “polyreactivity (PSR sort gate)” value was “high polyreactivity”.

In the case of “QVQLVESGGGLVQAGGSLRLSCAASGSIFEGYAMGWYRQAPGKERELVAVITTSGGDTYYADSVKGRFTISRDNAKNTVYLQMNSLKPEDTAVYYCNAADAVSDYPDFHIYDYWGQGTQVTVSS”, the “polyreactivity (PSR sort gate)” value was “low polyreactivity”.

In the case of “QVQLVESGGGLVQAGGSLRLSCAASGNTFVLYAMGWYRQAPGKERELVAAINNGGSTYADSVKGRFTISRDNAKNTVYLQMNSLKPEDTAVYYCAARYQVGVYWRRYYWGQGTQVTVSS”, the “polyreactivity (PSR sort gate)” value was “high polyreactivity”.

For “QVQLVESGVGLVQAGVSLRLSSAASGSIFRLYTMGWYRQATGKERELVAAITWSGGRTYYADSVKGRFTISRDNAKNTVYLQMNSLKPEDTAVYYCAADNWYSTYDYWGRGTQVTVSS”, the “polyreactivity (PSR sort gate)” value was “high polyreactivity”.

For “QVQLVESGGGLVQAGGSLRLSCAASGRIFNIYAMGWYRQAPGKERELVAAISGSGGRTSYADSVKGRFTISRDNAKNTVYLQMNSLKPEDTAVYYCAADYSYYTSFRYDYWGQGTQVTVSS”, the “polyreactivity (PSR sort gate)” value was “low polyreactivity”.

For “QVQLVESGGGLVQAGGSLRLSSAASGRTFSGYAMGWYRQAPGKERELVASISGSGSSTYYADSVKGRFTISRDNAMNTVYLQMNSLKPEDTAVYYCAKRSFYYRIQTGYNYWGQGTQVTVSS”, the “polyreactivity (PSR sort gate)” value was “high polyreactivity”.

For “QVQLVESGGGLVQAGGSLRLSCAASGSIFPYNDMGWYRQAPGKERELVAAISDSAGSTYYADSVKGRFTISRDNAKNTVYLQMNSLKPEDTAVYYCAADSWDSQVVSYEYWGQGTQVTVSS”, the “polyreactivity (PSR sort gate)” value was “low polyreactivity”.

In the case of “QVQLVESGRGLVQAGGSLRLSCAASGRTFGYYAMGWYRKAPGKERELVAASTYSGARTYYADSVKGRFTISRDNAKNTVYLQRNSLKPEDTAVYYCAADTYYDDGYYYWCQGTQVTVSS”, the “polyreactivity (PSR sort gate)” value was “high polyreactivity”.

With “QDQLVESGGGLVQAGGSLRLSCAASGRTFKTYAMGWYRQAPGKERELVAAISYSSGRTYYADSVKGRFTISRDNAKNTVYLQMNSLKPEDTAVYYCASLGSGVPRYYYWGQGTQVTVSS” the “polyreactivity (PSR sort gate)” value was “high polyreactivity”.

In the case of “QVQLVESGGGLVQAGGSLRLSCAASGRIFYRYAMGWYRQAPGKERELVAAISGRGGSTYYADSVKGRFTISRDNAKNTVYLQMNSLKPEDTAVYYCNALPVYRSLAYEVDYWGQGTQVTVSS”, the “polyreactivity (PSR sort gate)” value was “high polyreactivity”.

In the case of “HAQLQESGVGLVQAGGSLRRSCAASGSIFRFSGMGWYRRAPGKERELVASIGFGSITYYADRVKGRFTISRDNANNTEYLQMNSLKPEDTAVYYCAVQVQDESWLDYWGQGTQVTVSC”, the “polyreactivity (PSR sort gate)” value was “low polyreactivity”.

For “QVQRVESAGGLVQAGGSLRLSCAASGFIFSWYAMGWYRQAPGKERELVAAIRWSSGRTYYADSVKGRFTISRDNAKNTVYVQMNSLKPEDTAVYYCNARSDIHNSYDYWGQGTQVTVSS”, the “polyreactivity (PSR sort gate)” value was “high polyreactivity”.

With “QVQLVESGGGLVQAGGSLRLSCAASGSIFGRYAMGWYRQAPGKERELVASITRGAGSTYYADSVKGRFTISRDNAKNTVYLQMNSLKPEDTAVYYCRLAPRYRKGGYWGQGTQVTVSS” the “polyreactivity (PSR sort gate)” value was “high polyreactivity”.

In the case of “QVQLVESGGGLVQAGGSLRLSCAASGSIFHINAMGWYRQAPGKERELVADISQRGGSTYYADSVKGRVTISRDNAKNTVYLQMNSLKPEDTAVYYCAVVHVFYAVSYFSFYTYEYWGQGTQVTVSS”, the “polyreactivity (PSR sort gate)” value was “low polyreactivity”.

For “QVQLVESGGGLVQAGGSLRLSCAASGNTFRWYVMGWYRQAPGKERELVAAITSSGSTTYYADSVKGRFSISRDNAKNTVYLQMNSLKPEDTAVYYCAARNYGPYDYWGQGTQVTVSS”, the “polyreactivity (PSR sort gate)” value was “low polyreactivity”.

In the case of “QVQLVESGGGLVQAGGSLRLSCAASGSTFSVYAMGWYRQAPGKERELVATITWNGGRTYYADSVKGRFTISRDNAKNTVYLQMNSLKREDTAVYYCASPWLKPGNGIYGGYGYWGQGTQVTVSS”, the “polyreactivity (PSR sort gate)” value was “high polyreactivity”.

In the case of “QVQLVESGGGLVQAGGSLRLSSAASGSTIRFNAMGWYRQAPGKERELVAVIRWRGGTTYYADSVKGRFTISRDNAKNTVYLQINSLKPEDSAVYYCNADYWFSYTWHGSYTVGYWGQGTQVTVSS”, the “polyreactivity (PSR sort gate)” value was “high polyreactivity”.

With “QVQLVESGRGLVQAGGSLRLSSAASGSTFVNYDMGWYRQATGKERELVAAITSSGDSTYYADSVKGRFTISRDNAKNTVYLQMNSLKPEDTAVYYCNRDDAGIMDYWGQGTQVTVSS” the “polyreactivity (PSR sort gate)” value was “low polyreactivity”.

For “QVQLVESGGGLVQAGGSLRLSCAASGGTFRRYTMGWYRPAPGKERELVAVISRSGGSTYYADSVKGRFTISRDIAKNTVYLQMNSLKPEDTAVYYCAVVYYNGYDWGQGTQVTVSS”, the “polyreactivity (PSR sort gate)” value was “high polyreactivity”.

With “QFQLVESGGGFVQAGGSLRLSCAASGYTFQRYAMGWYRQAPGKERELVATISKRGGSTYYADSVKGRFTISRDNAKNTDYLQMNSLKPEDTAVYYCNKLRGLHNGYDYWGQGTQVTVSS” the “polyreactivity (PSR sort gate)” value was “high polyreactivity”.

With “QVQLEESGGGLVQAGASLRLICAASGFTFARNAMGWYRQAPGKERELVASITSGGSTNYADSVKGRFTISRDNAKNTVYLQMNSLKPEETAVYYCAAYQWIAPRRDYWGQGTQVTVSS” the “polyreactivity (PSR sort gate)” value was “low polyreactivity”.

For “QVQLVESGGGLVQAGGSLRLSCAASGRTFVSYVMGWYRQAPGKERELVAAIDQSGDRTYYPDSVKGRFTISRDNAKNTVYLQMNSLKPEDTAVYYCASRWGYSSRPYYYWGQGTQVTVSS”, the “polyreactivity (PSR sort gate)” value was “high polyreactivity”.

For “QVQLVESGGGLVQAGGSLRLSCAASGRIFAYYAMGWYRPAPGIERELVATIRGGGSTNYADSVKGRFTISRDNAKNTVYLQMNSLKPEATAVYYCAKPGAKWRGFDYWGLGTQVTVSS”, the “polyreactivity (PSR sort gate)” value was “low polyreactivity”.

With “QVQLVESGGGLVQAGGSLRLSCAASGRIFPYNAMGWYRQAPGKERELVAAINWSGGSTYYADSVKGRFTISRDNAKNTVYLQMNSLKPEDTAVYYCAAVYRYNSDPDYDYWGQGTQVTVSS” the “polyreactivity (PSR sort gate)” value was “high polyreactivity”.

With “QVQLVESGGGLVQAGGSLRLSCAASVFTFGQYTMGWYRQAPGKERELVAAITGSGGNTYYADSVKGRFTISRDNAKNTVYLQMNSLKPEDTAVYYCAVQWTYDQYYDYDYWGQGTQVTVSS” the “polyreactivity (PSR sort gate)” value was “low polyreactivity”.

For “QVQLEESGGGLVQAGGSLRLSCAASGFTFYSYVMGWYRPAPGKVTELVAAIYWSGGSTYYADSVKGRFTISRDNAKYTVYLQMNSLKPEDTAVYYCAARRYASRNGYLYDYWGQGTQVTVSS”, the “polyreactivity (PSR sort gate)” value was “high polyreactivity”.

With “QVQLVESGGGLVQAGGSLRISCAASGGIFNYYTMGWYRQAPGKERELVAAINSSGGNTHYADSVKGRFTISRDNAKNTVYLQMNSLKPEDTAVYYCNADARSVWFYRVDYWGQGTQVTVSS” the “polyreactivity (PSR sort gate)” value was “low polyreactivity”.

For “QVQLVESGGVLVQAGGSLRLSCAASGTFYPNARGWYRQAPGKDRELVAALSEDGGGTYYADSVKGRFTISRDNAKNTVYLQMNSLKPEDTAVYYCAAEYYDYWYTFDYWGQGTQVTVSS”, the “polyreactivity (PSR sort gate)” value was “high polyreactivity”.

With “QVQLVESGGGLVQAGGSLRLSCAASGRIFYYNDMGWYRQAPGKERELVAAITWTDDGTYYADSVKGRFTISRDNAKNTVFLQMNSLKPEDTAVYYCAAESFYGFEYWGQGTQVTVSS” the “polyreactivity (PSR sort gate)” value was “low polyreactivity”.

For “QVQLVESCGGLVQAGGSLRLSCAASGSTFVYNSMGWYRQAPGKEREMVDAITWRGSTYYADSVKGRFTISRDNAKNTVYLQMNSLKPEDTAVYYCAARFSNLPEGVTYYYWGQGTQVTVSS”, the “polyreactivity (PSR sort gate)” value was “high polyreactivity”.

In the case of “QVQLVESGGGLVQAGGSLRLSCAASGRIFGAYAMGWYRQAPWKERELVAAITSRGGNTYYADSVKGRFTISRDNAKNTVYLQMNSLKPEDTAVYYCAARHDKRRQYYVGQSAFDYWGQGTQVTVSS”, the “polyreactivity (PSR sort gate)” value was “low polyreactivity”.

For “QVQLVESGGRLFQAGGSLRLSCAASGRSYRYYAMGGYTKAPGKERELFAAISSGTRTNYADSVKGRFTISRDNAKNTVYFQMNSLKPEDTAVYYCKADGYRGYYGRNKSKYDFWGQGTQVTVSS”, the “polyreactivity (PSR sort gate)” value was “high polyreactivity”.

With “QVQLVESGGGLVQAGGSLRLSCAASGFIFFYYAMGWYRQAPGKERELVAVIDRSGGTTYYADSVKGRFTISRDNAKNTVYFQMNILKPEDTAVYYCNADDFTYPSGWGFIYDYWGQGTQVTVSS” the “polyreactivity (PSR sort gate)” value was “low polyreactivity”.

For “QVQLVESGAGLVQAAASLRLSCAASGRTFIYYSMGWYRQAPGKEREFVAIISWNGTSTNYADSVKGRFTISRDNAKNTVYLQMNSLKPEDTAVYYCAASFWTDYYRYDYWGQGTQVTVSS”, the “polyreactivity (PSR sort gate)” value was “low polyreactivity”.

With “QVHLVESGVGLVQAGGSLRLSCAASGITFGYYAMGWYRQAPGKERENVAAITRRGGSTYYADSVKGRFTISRDNAKNTVYLQMNSLKPVDTAVYYCAAVSYRYWFIEDNYWGQGTQVTVSS” the “polyreactivity (PSR sort gate)” value was “high polyreactivity”.

In the case of “QVQLVESGGGLVQAGGSLRLSCAASGRTFGNYAMGWYRQAPGKERELVAAITSAGRTYYADSVKGRFTISRDNAKNTVYLQMNSLKPEDTAVYYCNANRVSPYYWGQGTQVTVSS”, the “polyreactivity (PSR sort gate)” value was “low polyreactivity”.

For “QVQLVESGGGLVQAGGSLSLSCAASGSIFQKYTMGWYRQAPRKERELVAAITRSGGSTYYADSVKGRFTISRDNAKNTVYLQMNSLKAEDSAVYYCNKRYIPWAYDYWGQGTQVTVSS”, the “polyreactivity (PSR sort gate)” value was “high polyreactivity”.

In the case of “QVQLVESGGGLVQAGGSLRLSCAASGSTFGGYTMGWYRQAPGKERELVADITSSGSTNYADSLKGRFTISRDNAKNTVYLQMNSLKPEDTAVYYCAVRTYPGRFWYWGVDMDYWGQGTQVTVSS”, the “polyreactivity (PSR sort gate)” value was “low polyreactivity”.
